Source: article PMC6087011, “The mechanism by which a distinguishing arabinofuranosidase can cope with internal di-substitutions in arabinoxylans” (Biotechnology for Biofuels, 2018)

Tests used:
[1] = target: XacAbf51, GH51 α-L-arabinofuranosidase from Xanthomonas axonopodis pv. citri (X. axonopodis pv. citri str. 306); assay: SAXS
[2] = target: XacAbf51, GH51 α-L-arabinofuranosidase from Xanthomonas axonopodis pv. citri (X. axonopodis pv. citri str. 306); assay: […]; 20 °C; […], pH 7.5; […]
[3] = target: XacAbf51, GH51 α-L-arabinofuranosidase from Xanthomonas axonopodis pv. citri (X. axonopodis pv. citri str. 306); assay: AUC
[4] = tested on: O=[N+]([O-])c1ccc(O[C@@H]2O[C@@H](CO)[C@H](O)[C@H]2O)cc1; assay: purified protein; conditions: pH 5.5 McIlvaine buffer, 50 °C
[5] = substrate: O=[N+]([O-])c1ccc(O[C@@H]2O[C@@H](CO)[C@H](O)[C@H]2O)cc1; assay: colorimetric p-nitrophenolate release, A400; type: biochemical, Thermobacillus xylanilyticus; conditions: pH 5.5 McIlvaine buffer, 50 °C
Source text: colorimetric p-nitrophenolate release, A400 on TxAbfD3

XacAbf51, GH51 α-L-arabinofuranosidase from Xanthomonas axonopodis pv. citri (enzyme)
stoichiometry N [1]: 3
stoichiometry N [2]: 3
stoichiometry N [3]: 3

XacAbf51 (Xanthomonas citri subsp. citri 306)
Km [4]: 190 ± 10 µM
kcat [4]: 56.4 ± 0.8 s⁻¹
kcat/Km [4]: 300000 M⁻¹ s⁻¹

B1: TxAbfD3 (Thermobacillus xylanilyticus) (protein)
chain: MNVASRVVVNADRVKGTINRNIYGHFSEHLGRCIYEGLWVGEDSPIPNTNGIRNDVLEALKQMKIPVLRWPGGCFADEYHWKDGVGPREKRKRMVNTHWGGVIENNHFGTHEFMMLCELLGCEPYISGNVGSGTVQEMSEWVEYITFDGESPMANWRRENGREKPWRIKYWGVGNENWGCGGNMRAEYYADLYRQFQTYLRNYGDNKLHKIACGANTADYHWTEVLMKQAAPFMHGLSLHYYTVPGPWEKKGPATGFTTDEWWVTLKKALFMDRLVTKHSAIMDVYDPDKRIDLIVDEWGTWYDVEPGTNPGFLYQQNSIRDALVAGATLHIFHRHCDRVRMANIAQLVNVLQSVILTEGERMLLTPTYHVFNMFKVHQDAELLDTWESVERTGPEGELPKVSVSASRAADGKIHISLCNLDFETGASVDIELRGLNGGVSATGTTLTSGRIDGHNTFDEPERVKPAPFRDFKLEGGHLNASLPPMSVTVLELTAG
Km [5]: 520 ± 60 µM
kcat [5]: 154 ± 4.2 s⁻¹
kcat/Km [5]: 300000 M⁻¹ s⁻¹
